What all share (details): both partners purified
The target of assay [1] is T1, transglutaminase 2, wild type (UniProt P21980).
T1 construct: transglutaminase 2 (TG2); For the complex, native PAGE and SAXS the protein was incubated with 1 mM GDP (closed conformation); SASBDB SASDA28, SASDA38 and SASDA48 hold the SAXS data of TG2-GDP, the Fab and the complex; also called TG2; WT TG2
The assay is described as follows: SPR; BIAcore 3000; anti-TG2 antibodies amine-coupled to CM5 chips (700-2300 RU); WT or mutant TG2 injected in HBS-EP (0.01 M HEPES, 0.15 M NaCl, 2 mM EDTA, 0.05% P20, pH 7.4), 40 ul/min, 25 °C; relative binding at 500 nM, kinetics from serial dilutions (15.6/156-500/5000 nM); 1:1 Langmuir model; reference cell with a non-TG2 reactive antibody.

Assay [2] has as its target T2, transglutaminase 2 mutant R19S (Homo sapiens (assumed; human TG2 …, UniProt P21980, R19S).
T2 construct: transglutaminase 2 (TG2); also called TG2 R19S
The description is as above.

Assay [3] has as its target T3, transglutaminase 2 mutant K30A (Homo sapiens (assumed; human TG2 …, UniProt P21980, K30A).
T3 construct: transglutaminase 2 (TG2); also called TG2 K30A
The assay is described as above.

Assay [4] has as its target T4, transglutaminase 2 mutant R116A (Homo sapiens (assumed; human TG2 …, UniProt P21980, R116A).
T4 construct: transglutaminase 2 (TG2); also called TG2 R116A
The description is as above.

Assay [5] has as its target T1, transglutaminase 2, wild type. The assay is described as follows: SAXS; complex of TG2-GDP and 679-14-E06 Fab in solution, data at 9 mg/ml; molecular weight estimates and ab initio models; beamline P12, PETRA III.

This is an account of results in article PMC4571865, “Structural Basis for Antigen Recognition by Transglutaminase 2-specific Autoantibodies in Celiac Disease*” (The Journal of Biological Chemistry, 2015).

T3 sequence (P21980 whole entry K30A): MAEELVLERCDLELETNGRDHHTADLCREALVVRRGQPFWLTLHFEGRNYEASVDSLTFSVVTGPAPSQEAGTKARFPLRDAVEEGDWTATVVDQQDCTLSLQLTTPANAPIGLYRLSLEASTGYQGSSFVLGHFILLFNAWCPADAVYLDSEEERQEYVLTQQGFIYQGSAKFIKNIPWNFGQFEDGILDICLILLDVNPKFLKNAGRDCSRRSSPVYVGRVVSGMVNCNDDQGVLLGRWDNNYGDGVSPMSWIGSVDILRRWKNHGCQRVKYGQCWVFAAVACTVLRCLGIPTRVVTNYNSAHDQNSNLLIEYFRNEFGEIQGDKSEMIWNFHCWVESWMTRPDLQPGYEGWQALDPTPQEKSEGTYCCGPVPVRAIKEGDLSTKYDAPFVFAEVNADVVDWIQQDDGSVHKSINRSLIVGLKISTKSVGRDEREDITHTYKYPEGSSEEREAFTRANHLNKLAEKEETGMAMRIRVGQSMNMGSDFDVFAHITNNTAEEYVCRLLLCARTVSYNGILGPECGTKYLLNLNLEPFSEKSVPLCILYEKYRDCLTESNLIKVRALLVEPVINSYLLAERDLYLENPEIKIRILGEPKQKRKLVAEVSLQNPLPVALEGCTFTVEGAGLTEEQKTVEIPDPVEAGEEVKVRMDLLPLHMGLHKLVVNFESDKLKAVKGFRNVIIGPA
T1 sequence (P21980 whole entry): as the sequence (P21980 whole entry K30A) above, with A30K counted along it
T4 sequence (P21980 whole entry R116A): as the sequence (P21980 whole entry K30A) above, with A30K, R116A counted along it
T2 sequence (P21980 whole entry R19S): as the sequence (P21980 whole entry K30A) above, with R19S, A30K counted along it

B1: anti-TG2 antibody 679-14-E06 (human IgG1) (antibody, V domains shown)
VH: EVQLVQSGAEVKKPGESLKISCKGSGYSFTSYWIGWVRQMPGKGLEWMGIIYPGDSDTRYSPSFQGQVTISADKSISTAYLQWSSLKASDTAMYYCARPHYYDSLDAFDIWGQGTMVTVSS
VL: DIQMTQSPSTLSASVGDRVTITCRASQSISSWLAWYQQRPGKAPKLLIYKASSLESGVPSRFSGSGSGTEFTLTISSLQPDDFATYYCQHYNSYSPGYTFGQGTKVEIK
notes: constant region of human IgG1; IgG1; derived from a single gut IgA plasma cell of a celiac disease patient; Residues 142-149, 198-207, 225-231 of the heavy chain and 172-175, 228-234 of the light chain lack electron density in PDB 4ZD3 (IMGT numbering); source: HEK 293F cells, co-transfected heavy and light chain plasmids; purified from culture supernatant (protein G column)
For B1, the Kd in assay [1] came to 55.5 nM; in assay [2], 147 nM; in assay [3] it was 49.9 nM; in assay [4], 240 nM. Besides, the koff was 0.00474 s⁻¹ in assay [1], 0.00525 s⁻¹ in assay [2], 0.00353 s⁻¹ in assay [3] and 0.00736 s⁻¹ in assay [4]. Besides, the kon in assay [1] was determined as 85300 M⁻¹ s⁻¹; in assay [2], 35800 M⁻¹ s⁻¹; in assay [3], 70800 M⁻¹ s⁻¹; in assay [4] it was 30600 M⁻¹ s⁻¹.

B2: Fab fragment of antibody 679-14-E06 (Fab, V domains shown)
VH: EVQLVQSGAEVKKPGESLKISCKGSGYSFTSYWIGWVRQMPGKGLEWMGIIYPGDSDTRYSPSFQGQVTISADKSISTAYLQWSSLKASDTAMYYCARPHYYDSLDAFDIWGQGTMVTVSS
VL: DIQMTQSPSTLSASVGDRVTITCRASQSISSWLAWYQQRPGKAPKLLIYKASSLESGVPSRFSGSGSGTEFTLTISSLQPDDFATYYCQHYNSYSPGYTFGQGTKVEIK
notes: Electron density is missing for residues 142-149, 198-207, 225-231 of the heavy chain and 172-175, 228-234 of the light chain in PDB 4ZD3 (IMGT numbering); also called the Fab fragment; source: HEK 293F cells, co-transfected heavy and light chain plasmids; purified from culture supernatant (protein L column)
Consider B2, for which the “stoichiometry N” value in assay [5] is 1.
